{"source": "paper PMC8712716", "origin": "cited, not measured here", "key": {"GRP78 (Homo sapiens)": {"biological_target": "GRP78 (Homo sapiens) (UniProt P11021)", "sequence (P11021 19-654)": "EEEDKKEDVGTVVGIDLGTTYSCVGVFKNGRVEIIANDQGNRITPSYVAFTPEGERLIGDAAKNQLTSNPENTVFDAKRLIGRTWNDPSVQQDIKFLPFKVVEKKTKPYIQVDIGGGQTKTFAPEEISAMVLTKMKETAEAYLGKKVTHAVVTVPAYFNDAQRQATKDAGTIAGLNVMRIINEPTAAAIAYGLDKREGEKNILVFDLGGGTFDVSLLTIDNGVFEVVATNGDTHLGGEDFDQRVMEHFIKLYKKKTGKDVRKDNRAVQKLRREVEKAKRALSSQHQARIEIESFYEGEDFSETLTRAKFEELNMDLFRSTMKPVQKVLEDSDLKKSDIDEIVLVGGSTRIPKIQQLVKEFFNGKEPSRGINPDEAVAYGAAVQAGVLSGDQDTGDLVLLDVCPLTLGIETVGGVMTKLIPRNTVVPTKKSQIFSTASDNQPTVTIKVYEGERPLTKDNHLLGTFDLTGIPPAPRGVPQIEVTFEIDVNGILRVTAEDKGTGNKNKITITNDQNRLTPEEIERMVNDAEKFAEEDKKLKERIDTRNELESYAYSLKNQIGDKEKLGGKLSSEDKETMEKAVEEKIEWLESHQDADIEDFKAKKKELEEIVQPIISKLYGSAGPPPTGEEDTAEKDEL"}, "TGF-beta2 (Homo sapiens)": {"biological_target": "TGF-beta2 (Homo sapiens) (UniProt P61812)", "sequence (P61812 303-414)": "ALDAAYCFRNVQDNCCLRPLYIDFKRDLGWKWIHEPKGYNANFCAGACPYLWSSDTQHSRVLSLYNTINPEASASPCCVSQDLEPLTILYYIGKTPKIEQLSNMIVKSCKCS"}, "NGF-beta (Homo sapiens)": {"biological_target": "NGF-beta (Homo sapiens) (UniProt P01138)", "sequence (P01138 122-241)": "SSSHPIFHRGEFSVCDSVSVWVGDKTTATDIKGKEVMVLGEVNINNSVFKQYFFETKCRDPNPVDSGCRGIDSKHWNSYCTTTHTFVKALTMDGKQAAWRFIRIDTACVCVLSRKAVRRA"}, "FGF-2 (Homo sapiens)": {"biological_target": "FGF-2 (Homo sapiens) (UniProt P09038)", "sequence (P09038 143-288)": "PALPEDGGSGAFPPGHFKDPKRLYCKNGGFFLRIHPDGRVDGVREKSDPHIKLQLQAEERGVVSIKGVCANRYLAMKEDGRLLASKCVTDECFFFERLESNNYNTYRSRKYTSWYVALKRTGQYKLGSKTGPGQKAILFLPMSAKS"}, "TGF-beta1 (Homo sapiens)": {"biological_target": "TGF-beta1 (Homo sapiens) (UniProt P01137)", "sequence (P01137 279-390)": "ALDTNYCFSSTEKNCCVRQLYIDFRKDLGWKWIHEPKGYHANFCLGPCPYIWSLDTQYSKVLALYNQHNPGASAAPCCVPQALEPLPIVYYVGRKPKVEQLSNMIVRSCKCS"}, "TNF-alpha (Homo sapiens)": {"biological_target": "TNF-alpha (Homo sapiens) (UniProt P01375)", "sequence (P01375 77-233)": "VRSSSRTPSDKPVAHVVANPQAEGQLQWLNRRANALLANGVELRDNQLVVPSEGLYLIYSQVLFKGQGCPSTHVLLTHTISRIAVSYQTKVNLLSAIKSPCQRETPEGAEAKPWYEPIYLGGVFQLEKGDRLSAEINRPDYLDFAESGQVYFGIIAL"}}}
{"substance": "alpha-2-macroglobulin (from UniProt P01023)", "values": [{"measurement": "Kd", "setting": "GRP78 (Homo sapiens)", "value": 0.15, "unit": "nM"}, {"measurement": "Kd", "setting": "TGF-beta2 (Homo sapiens)", "value": 12, "unit": "nM"}, {"measurement": "Kd", "setting": "NGF-beta (Homo sapiens)", "value": 110, "unit": "nM"}, {"measurement": "Kd", "setting": "FGF-2 (Homo sapiens)", "value": 590, "unit": "nM"}, {"measurement": "Kd", "setting": "TGF-beta1 (Homo sapiens)", "value": 80, "unit": "nM"}, {"measurement": "Kd", "setting": "TNF-alpha (Homo sapiens)", "value": "> 750", "unit": "nM"}]}
